Measurements as given in the supplement of paper PMC9170038.

System: MS2 coat protein
Experiment: apparent KD of MS2 coat protein; designed switch direction (-1 OFF switch, 1 ON switch): -1; higher = weaker reporter binding
Method in brief: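 For each design, the apparent KD is the median over clusters of curves fitted to normalised cluster fluorescence. Clusters held RNA switches with common flanks, transcribed on Illumina chips by stalled E. coli RNA polymerase. These were titrated with SNAP-549-labelled MS2 coat protein, doubling from 0.7 or 1.5 nM to 3 µM, without input, with 200 uM small-molecule ligand, or with an oligonucleotide input.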

[1] = input ligand: microRNA oligo, concentration not stated
[2] = Eterna round: R95, input ligand: microRNA oligo, concentration not stated
[3] = Eterna round: R95, input ligand: FMN 200 uM
[4] = Eterna round: R95, input ligand: none

| Sequence | apparent KD of MS2 coat protein [2] | apparent KD of MS2 coat protein (input ligand: FMN 200 uM) | apparent KD of MS2 coat protein (input ligand: none) | further results |
| --- | --- | --- | --- | --- |
| UUUGUUUUGGUAGGAUAUACUUUUAUUUUCUCUUUCCUUACAUGAGGAUCACCCAUGUUUACAUUGUAGAAGGACCACUUUGUU [JR_ExcNG2_Sub051] (Eterna round: R96, puzzle: Exclusion NG 2) |  |  |  | apparent KD of MS2 coat protein [1]: 15.5 nM |
| UUUUAACAUGAGGAUCACCCAUGUGAGGAUAUCGAAUUUUUUAUUAAUAUUAAUAAAACGAGAAGGCACAUUUU [JMF 16] (puzzle: Exclusion 1) | 55.2 nM |  |  |  |
| GAUCCACAUGAGGAUCACCCAUGUGAGGAUAUGAUACUAUGUACUUCGGUACAUAGUAUCAGAAGGCAUAUUGA [Ex1-3: 46] (puzzle: Exclusion 1) | 36.3 nM |  |  |  |
| AGUACUAACACGAUAGUGUUAGUACUAUAAGCUUGUGUUACAUGAGGAUCACCCAUGUCCUCAUAAGCUCGUCUUAA [Mat - Sensor v3 - Turn-off var 2 - D65] (puzzle: Sensor v3, turn-off variant 2) | 420 nM |  |  | apparent KD of MS2 coat protein [3]: 36.9 nM; apparent KD of MS2 coat protein [4]: 38.1 nM |
| AAGACAAAUGUAGGAUAUGCGUGGCGAAGCUAUGCAGAAGGACAUGAGGAUCACCCAUGUCUAAGCGUCUGCGUACAGAUGCUA [JL eng1 1.35 mod 8] (Eterna round: R96, puzzle: Exclusion NG 1) |  | 19.9 nM | 18.4 nM | apparent KD of MS2 coat protein [1]: 10.7 nM |
| AUGAUACAUGAGGAUCACCCAUGUUAGGAUAUACGCAUGCAUGCAUGCAUGCAUGCAAGUAGAAGGAACCAUGC [Design #2] (Eterna round: R97, puzzle: Exclusion 1) |  | 56.8 nM | 48.2 nM |  |
| GAGUGCUGAGGAUAUACAUGAGGAUCACCCAUGUGCUUCAGCUAGGAGACUAGCAUUGGUAGAAGGUAGUACUC [LRO-Excl3-02] (puzzle: Exclusion 3) | 10.6 nM |  |  |  |
| GGUCAAGAGCAGCUCCGCGCUGCCAUUGACCGCUCAUUUACAUGAGGAUCACCCAUGUUUUUUGCUCGUCUUAUUAC [Somabi] (puzzle: Sensor v3, turn-off variant 2) | 53.2 nM |  |  | apparent KD of MS2 coat protein [3]: 18.5 nM; apparent KD of MS2 coat protein [4]: 18.8 nM |
| UGUUUACAUGAGGAUCACCCAUGUCAGGAUAUGCUCGAUAUAUGGAAACAUAUAUCGAGCAGAAGGGACUAGCG [Jieuxxlusion 4 - Jieux - Exclusion 1] (Eterna round: R97, puzzle: Exclusion 1) |  | 85 nM | 39.3 nM |  |
| AUAUUGUGAGGAUAUGAACUUAGUAUCGAAAGAUACUUAGUUCAGAAGGCACAUGAGGAUCACCCAUGUUUCUC [Long static hairpin v17] (Eterna round: R97, puzzle: Exclusion 4) |  | 883 nM | 69.8 nM |  |
| UGAGCUUACGUAGGAUAUGAGGAUCACCCAUAGAAGGAUAUCGAAAGAGAAGGUCUGAGGAUUACCCAGAAGGACGUGGGCUCU [pwkr exNG2 2xF5 2xFMN.12] (Eterna round: R96, puzzle: Exclusion NG 2) |  | 732 nM | 151 nM | apparent KD of MS2 coat protein [1]: 122 nM |
| AGUACUAACACGCUUGUGUUAGUACAAUAAGCUUGUGAAACAUGAGGAUCACCCAUGUCCUCAUAAGCUCGUCUUAU [salish99_TOv2_r3_072] (puzzle: Sensor v3, turn-off variant 2) | 654 nM |  |  | apparent KD of MS2 coat protein [3]: 17 nM; apparent KD of MS2 coat protein [4]: 15.9 nM |
| ACAUGAGGAUCACCCAUGUCAGGCUGGUCCGCUCCGGCUGUUGAGGAUAUAGCACGGUGUCCGCGCUAGAAGGUGAGGGCCGGC [Aenatbe mod 31] (Eterna round: R96, puzzle: Exclusion NG 3) |  | 24.8 nM | 26.4 nM | apparent KD of MS2 coat protein [1]: 15.7 nM |
| GAGUGACAUGAGGAUCACCCAUGUAAGGAUAUACGGUUGGUAGAGAGAGGGAAAAGAGGUAGAAGGUACGAAGG [JR_Exclu1_Sub056] (puzzle: Exclusion 1) | 56 nM |  |  | apparent KD of MS2 coat protein [3]: 43.9 nM; apparent KD of MS2 coat protein [4]: 76.2 nM |
| CUUUUGUGAGGAUAUCAGUAGUAAAGAAAUAAAAUUACUACUGAGAAGGCACAUGAGGAUCACCCAUGUUCCUC [Mat - Exclusion 4 - Mod of Salish - D62] (puzzle: Exclusion 4) | 36.2 nM |  |  |  |
| GAUCCUUCUGUUAGGAUAUGCUUCGGGCUUCCGCUGCAGAAGGAACAUGAGGAUCACCCAUGUCAAAUAAAAUC [JL-BMX4-4.38 ViennaUCT mod] (Eterna round: R97, puzzle: Brourd's mod of Exclusion 4) |  | 48.5 nM | 17.8 nM |  |
| AUGUUGCGAGGAUAUAUAAGGGUAUAUUCAUAAGAUAUGGAACAUGAGGAUCACCCAUGUAGAAGGUGCAUAAC [JR_Ex2_Sub042] (Eterna round: R97, puzzle: Exclusion 2) |  | 200 nM | 46.2 nM |  |
| AAGUACCGGUGAGGAUAUUUUUAAUAGAACUUUAUGAUAUACAUGAGGAUCACCCAUGUUACUUUAAAGAAGGCAUCGGAUUAA [Mat - Exclusion NG 2 - Mod of JL - D86] (Eterna round: R96, puzzle: Exclusion NG 2) |  |  |  | apparent KD of MS2 coat protein [1]: 12.5 nM |

| Sequence | apparent KD of MS2 coat protein [2] | apparent KD of MS2 coat protein (input ligand: FMN 200 uM) | apparent KD of MS2 coat protein (input ligand: none) | further results |
| --- | --- | --- | --- | --- |
| GUAGUUCGAGUUAGGAUAUGAUUAAAAUUCGGAUAUCAGAAGGAACUUGAGGAUCACCCAAGUAUAGAUGAUUC [JR_BMEx4_Sub058] (Eterna round: R97, puzzle: Brourd's mod of Exclusion 4) |  | 91.6 nM | 38.1 nM |  |
| UAUGGUUAAGUCAGGAUAUGCACGAAGAGAACAAAGCAGAAGGGACAUGAGGAUCACCCAUGUAAAGUCGUGUU [Ex4 #76] (Eterna round: R97, puzzle: Brourd's mod of Exclusion 4) |  | 28.4 nM | 32 nM |  |
| AUUCCUUGUGUUAGGAUAUGUCACUACCGUAUGCGACAGAAGGAACAUGAGGAUCACCCAUGUGAGUUAGCCGA [Usened] (puzzle: Brourd's mod of Exclusion 4) | 52.4 nM |  |  |  |
| UUAAUUAAUUGACUGCAAGAUCAACAUGAGGAUCACCCAUGUGAGGAUAUCAGCUCGUGUAGAGCUGAGAAGGCACAAGCAGUC [ExNG3/16-A3] (Eterna round: R96, puzzle: Exclusion NG 3) |  | 73.6 nM | 21.8 nM | apparent KD of MS2 coat protein [1]: 13.4 nM |
| AGCUGUGGCCGAGGAUAUCACAUGAGGAUCACCCAUGUACAUGAUUAAGCCUGGUAACAGGCUCAUGAGAAGGCGGUCUCAGCA [Eli eng2 - 014] (Eterna round: R96, puzzle: Exclusion NG 2) |  | 12 nM | 20.6 nM | apparent KD of MS2 coat protein [1]: 13.1 nM |
| UUUUGGCAGGCUAUUAUUAACAUGAGGAUCACCCAUGUGCAUCCAAAAUUACUUUUAGAUCUUGCUCGUCUUAUAUA [JR_STOV1_Sub086] (Eterna round: R97, puzzle: Sensor, turn-off variant 1) |  | 379 nM | 684 nM |  |
| UUGAGACAUGAGGAUCACCCAUGUAAGGAUAUAGUCGUCUGGUGGUCUCGGGUGGUGGCUAGAAGGUGCGUGCG [-15.7, 14.3 kcal, A 20%] (Eterna round: R97, puzzle: Exclusion 1) |  | 241 nM | 239 nM |  |
| GCUGGUCGAGGAUAUGCAAUCGUGCUUCGGCACGUAAGGUCACAUGAGGAUCACCCAUGUAGAAGGCGACCAGC [E2/4-A1] (Eterna round: R97, puzzle: Exclusion 2) |  | 32.5 nM | 19.2 nM |  |
| CAUACACAUGAGGAUCACCCAUGUGAGGAUAUGCGUACGUUGUCCGUAGGCGACGUGCGCAGAAGGCGCGUGUU [JL-ex1-3.15 Eli mod] (puzzle: Exclusion 1) | 42.5 nM |  |  |  |
| GAGUGCUGAGGAUAUACAUGAGGAUCACCCAUGUGCUUCAGCUAGGAGACUAGCAUUGGUAGAAGGCAGUACUC [LRO-Excl3-01] (puzzle: Exclusion 3) | 11.1 nM |  |  |  |
| UGCAGACGAGGAUAUAGAUUUAGAUACAUGAGGAUCACCCAUGUAUACAUGUAUUUAGAUUUAGAAGGCGUCUGCU [E5/14-A3] (Eterna round: R97, puzzle: Exclusion 5) |  | 952 nM | 2220 nM |  |
| CUAGUCCGAGGAUAUAUUAUGUGAUACAUGAGGAUCACCCAUGUUAUAUGAUGGAUAUUAAUAGAAGGCGGACUAG [Mat - Exclusion 5 - JL mod - D74] (puzzle: Exclusion 5) | 68.3 nM |  |  | apparent KD of MS2 coat protein [3]: 58 nM; apparent KD of MS2 coat protein [4]: 88 nM |
| AUUAAACGUGUAGGAUAUGCGUGGCGAAGCUAUGCAGAAGGACAUGAGGAUCACCCAUGUUCUAGCGUCUGCGUACAGAUGCUA [JL eng1 1.35 mod 5] (Eterna round: R96, puzzle: Exclusion NG 1) |  | 25.1 nM | 16.3 nM | apparent KD of MS2 coat protein [1]: 11.4 nM |
| GCCAGAUCAGGAUAUCUAAUAUAUCACAUGAGGAUCACCCAUGUCCAGCGAAAGCUGGAGGGAGAAGGGAUCUGGC [Mat - Exclusion 5 - Eli mod - D102] (puzzle: Exclusion 5) | 79.8 nM |  |  | apparent KD of MS2 coat protein [3]: 39.8 nM; apparent KD of MS2 coat protein [4]: 48.2 nM |
| AGGUGUAGAGGAUAUCUCUUCUCUCACAUGAGGAUCACCCAUGUCCUGGUCACCAAGGAGAGAGAAGGCUACACCA [Omei Ex5 D9] (Eterna round: R97, puzzle: Exclusion 5) |  | 56.4 nM | 76.4 nM |  |
| GUUUAAUUAGGAUAUGCAAGCGGUGUUAGAAAAGUAUCCAAACAUGAGGAUCACCCAUGUAGAAGGAGUUGUUG [Eternabot (L2) Solution 59] (Eterna round: R97, puzzle: Exclusion 2) |  | 28.5 nM | 30.2 nM |  |
| AAAUUAAGUGUGAGGAUAUGCUGGUCCUUAGAUCAGCAGAAGGCACAUGAGGAUCACCCAUGUAAUAUAUUUAA [Mat - Exclusion 4 - JL Mod - D50] (puzzle: Brourd's mod of Exclusion 4) | 35.4 nM |  |  |  |
